These results are taken from US20240417754.

The subject of the series is T1, Pf80 large serine recombinase.
T1 sequence: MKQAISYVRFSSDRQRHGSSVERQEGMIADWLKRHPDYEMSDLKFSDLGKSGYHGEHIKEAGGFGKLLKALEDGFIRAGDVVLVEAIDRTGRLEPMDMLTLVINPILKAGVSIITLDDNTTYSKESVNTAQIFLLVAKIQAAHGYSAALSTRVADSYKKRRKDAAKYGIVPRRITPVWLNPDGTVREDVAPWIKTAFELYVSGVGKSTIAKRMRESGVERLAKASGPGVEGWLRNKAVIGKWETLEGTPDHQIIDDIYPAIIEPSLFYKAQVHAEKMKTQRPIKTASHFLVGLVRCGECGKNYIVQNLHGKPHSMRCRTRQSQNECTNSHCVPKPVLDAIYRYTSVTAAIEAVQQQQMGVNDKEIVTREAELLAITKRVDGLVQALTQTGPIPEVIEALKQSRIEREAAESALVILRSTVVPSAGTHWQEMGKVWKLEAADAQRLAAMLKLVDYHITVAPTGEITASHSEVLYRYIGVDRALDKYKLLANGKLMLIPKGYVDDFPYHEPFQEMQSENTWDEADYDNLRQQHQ
The experiment in a line: cell_activity. Conditions: share of unique integration reads at predicted site.

For the substance Pf80 attH (FKBP2 exon), the on-target integration read share is 34.3%.
